# Legend:
# [1] = test system: NC(=O)c1ccc[n+]([C@@H]2O[C@H](COP(=O)(O)OP(=O)(O)OC[C@H]3O[C@@H](n4cnc5c(N)ncnc54)[C@H](O)[C@@H]3O)[C@@H](O)[C@H]2O)c1; assay: purified protein; type: biochemical, Enterococcus faecalis; conditions: 1,3-propanediol oxidation direction, 37 °C, 1,3-propanediol as co-substrate, its concentration and pH of assay not told, varied: cofactor
# [2] = test system: OCCCO; assay: purified protein; type: biochemical, Enterococcus faecalis; conditions: NAD+ close to saturation, 37 °C, pH of assay not told, kcat printed as Vmax per enzyme molecule, closely corresponding to kcat
substance,measurement,setting,value
"1,3-propanediol dehydrogenase (1,3-PD), rumen plasmid-encoded (Enterococcus faecalis)",Km,[1],0.25 ± 0.04 mM
same,Km,[2],17 ± 6 mM
same,kcat,[2],0.183 ± 0.017 s⁻¹
